We go through 4 substances from publication PMC2783259.

Assay [1] addresses human FcγRIIA (CD32), H131 allotype, on CV-1 cells (human) (UniProt P12318). Nature of the assay: inhibition of rosette formation.
The target is the same in assay [2]. Description: inhibition of rosette formation. The source holds these as a separate data set.
For assay [3], the target named is human FcγRIA (CD64) co-expressed with the common γ chain on CV-1 cells (human) (UniProt P12314). Nature of the assay: inhibition of rosette formation.
The target of assay [4] is human FcγRIIA (CD32), R131 allotype, on CV-1 cells (human). Description: inhibition of rosette formation.
In assay [5] the target is human FcγRIA (CD64) co-expressed with the common γ chain on CV-1 cells (human) (UniProt P12314). Nature of the assay: inhibition of rosette formation. The source holds these as a separate data set.
For assay [6], the target named is The FcγRIA and FcγRIIA transfectants. Nature of the assay: rosette formation.

Read-outs that look alike come from different tables or passages of the source.

On to “human IgG2 myeloma protein, heat-aggregated (antibody)”, for which the percent inhibition of rosette formation in assay [1] was 60%; in assay [2], 65%; in assay [3], 20%.

As to “human IgG1 myeloma protein, heat-aggregated (antibody)”, the percent inhibition of rosette formation in assay [4] and in assay [5] was above 90% throughout.

For the substance “human IgG3 myeloma protein, heat-aggregated (antibody)”, the percent inhibition of rosette formation in assay [4] and in assay [5] was above 90% each time.

In turn, “rabbit IgG on opsonized sheep red blood cells (SRBC) (antibody)” registered a percent rosette formation in assay [6] of 82 to 97%.
